Measurements reported in article PMC8887654 (ACS infectious diseases, 2022).
Values joined by “and” are separate entries in the source; they are usually repeats but may differ in a detail not shown here. Identical values can stand only once.

Key:
[1] = tested on: RPTEC; details: human
[2] = tested on: subgroup 2b PLpros; assay: PLpro inhibition IC50, text summary over all three PLpros; assay type: biochemical; details: read-out: IC50 values; text summary for the most potent inhibitors
[3] = tested on: BEAS-2B cells; details: human
[4] = tested on: MHV PLP2; details: cited from earlier work
[5] = tested on: BtSCoV-Rf1.2004 PLpro; assay type: biochemical
[6] = tested on: SARS PLpro; details: cited from earlier work
[7] = tested on: SARS-2 PLpro; details: cited from earlier work
[8] = tested on: MERS PLpro; details: cited from earlier work

Compound | CC50 relative to IC50 [1] | IC50 [2] | CC50 relative to IC50 [3] | Kcat [4] | Km [4] | Kcat [5] | Km [5] | Kcat [6] | Km [6] | Kcat [7] | Km [7] | Kcat [8] | Km [8] | observed rate (no maximum turnover calculable) [5]
Cc1ccc(N)cc1C(=O)N[C@H](C)c1cccc2ccccc12 [GRL0617, 5-Amino-2-methyl-N-[(R)-1-(1-naphthyl)ethyl]benzamide] | more than five times the IC50 | < 10 µM | more than five times the IC50 | – | – | – | – | – | – | – | – | – | – | –
Ubiquitin–7-amino-4-methylcourmarin [Ub-AMC] | – | – | – | 0.83 ± 0.0483 s⁻¹ | 1.3 ± 0.2 µM | 0.232 ± 0.0067 s⁻¹ | 14.3 ± 0.9 µM | 1.26 ± 0.135 s⁻¹ | 50.6 ± 7.4 µM | 0.167 ± 0.013 s⁻¹ | 7.9 ± 1.4 µM | 0.313 ± 0.02 s⁻¹ | 14.3 ± 2 µM | –
human ISG15-7-amino-4-methylcourmarin [ISG15-AMC] | – | – | – | – | – | – | – | 7.27 s⁻¹ and 7.27 ± 0.667 s⁻¹ | 15.1 ± 2.4 µM | 0.667 ± 0.03 s⁻¹ | 3.9 ± 0.5 µM | 0.543 ± 0.03 s⁻¹ | 3.3 ± 0.5 µM | 595 min⁻¹
